Several values for one entry are separate records, joined by “and”; a condition that tells them apart may be missing. Identical values can stand only once. Like-named read-outs stand apart in the source and are kept apart here.
Columns and labels:
KPC cells = test: Tumor growth in wt mice after peritoneal injection of KPC cells, gemcitabine plus recombinant ASM (Example 10, FIG. 11); type: in vivo; conditions: 0.75 mg/kg i.v. twice daily, 2 treatment cycles of 4 days each, in combination with gemcitabine; KPC tumor-injected wt mice
Procedure: FIG. 11 is a graph showing the results of wt mice that were treated with gemcitabine alone, gemcitabine plus recombinant ASM, or vehicle control after peritoneal injection of KPC cells. Recombinant ASM was administered twice daily at 0.75 mg/kg i.v. for two treatment cycles of 4 days each.
Since PDAC growth in ASM-tr mice. we determined the therapeutic potential of exogenous administration of recombinant ASM. We administered 0.75 mg/kg recombinant ASM i.v. twice daily to tumor-injected mice for 2 treatment cycles of 4 days each in combination with the standard treatment, i.e. gemcitabine. […] However, because the half-life of recombinant ASM is only 2 h, these studies must be repeated with continuous infusion of ASM.
Wt mice were treated with gemcitabine alone (“Group 1”), gemcitabine plus recombinant ASM (“Group 2”) or vehicle control after peritoneal injection of KPC cells (“Group 3”). Recombinant ASM was administered twice daily 0.75 mg/kg i.v. for two treatment cycles of 4 days each.

PD1 on CD3 lymphocytes = test: PD1 surface expression on CD3 lymphocytes by flow cytometry in KPC tumor mice (Example 12); type: in vivo; conditions: wildtype mice, KPC-PDAC (50 000 cells i.p.), 21 days; rec. ASM for 2 days with 4 i.p. injections/day; individual mice
Procedure: FIG. 12 is a graph showing the PDI expression on lymphocytes of tumor mice upon treatment with recombinant acid sphingomyelinase or solvent.
The PD1 expression on lymphocytes with/without treatment with recombinant acid sphingomyelinase was determined. The surface expression of PD1 on CD3 lymphocytes was determined by flow cytometry upon staining with FITC-anti-PD1 and APC-anti-CD3 antibodies, expressed as mean fluorescence in a.u. of PD1 in the CD3-positive cell population. Mice were i.p. injected with 50 000 KPC tumor cells, left for 21 days untreated or treated with recombinant acid sphingomyelinase for 2 days with 4 i.p. injections/day.

[1] = in humans; cited from earlier work
[2] = cited from earlier work
KPC tumor cells = test: Survival after i.p. injection of KPC tumor cells (Example 11); type: in vivo, mice; conditions: 50 000 KPC tumor cells i.p., rec. ASM i.p. twice daily for 2 weeks, starting 2 days after tumor injection; for Survival of individual subjects: anti-PD1 every 2nd day i.p. 250 μg/25 g where combined
Procedure: Group 1: 50 000 KPC tumor cells were i.p. injected and tumor development was determined. For this group, the subjects survived, respectively, for 27, 28, 28, 29, 30, and 31 days.
Group 2: Survival time was collected for subjects upon application of recombinant acid sphingomyelinase (i.p., twice daily, for 2 weeks, starting 2 days after tumor injection). For this group, the subjects survived, respectively, for 48, 55, 57, 60, 62, 65 and 70 days. The acid sphingomyelinase was injected for a longer time and i.p. in these experiments than in FIG. 11.
Group 3: Survival time was collected for subjects upon application of recombinant acid sphingomyelinase (i.p., twice daily, for 2 weeks, starting 2 days after tumor injection)+application of anti-PD1 antibodies (every 2nd day i.p., 250 μg/25 g). For this group, the subjects survived, respectively, for 75, 80, 85, 87, 90, 93 and 96 days. The half-life time of acid sphingomyelinase is rather short in mice (2 hrs, but much longer in humans with 2 weeks). Thus, the i.p. injection are not very sufficient and must be replaced by continuous infusion, which may allow complete elimination of the tumors.

B1: recombinant ASM: recombinant acid sphingomyelinase (EC 3.1.4.12, SMPD1), a lysosomal hydrolase glycoprotein degrading sphingomyelin to phosphorylcholine and ceramide (protein, UniProt P17405 47-631, looked up)
Sphingomyelin …: LALSDSRVLWAPAEAHPLSPQGHPARLHRIVPRLRDVFGWGNLTCPICKGLFTAINLGLKKEPNVARVGSVAIKLCNLLKIAPPAVCQSIVHLFEDDMVEVWRRSVLSPSEACGLLLGSTCGHWDIFSSWNISLPTVPKPPPKPPSPPAPGAPVSRILFLTDLHWDHDYLEGTDPDCADPLCCRRGSGLPPASRPGAGYWGEYSKCDLPLRTLESLLSGLGPAGPFDMVYWTGDIPAHDVWHQTRQDQLRALTTVTALVRKFLGPVPVYPAVGNHESTPVNSFPPPFIEGNHSSRWLYEAMAKAWEPWLPAEALRTLRIGGFYALSPYPGLRLISLNMNFCSRENFWLLINSTDPAGQLQWLVGELQAAEDRGDKVHIIGHIPPGHCLKSWSWNYYRIVARYENTLAAQFFGHTHVDEFEVFYDEETLSRPLAVAFLAPSATTYIGLNPGYRVYQIDGNYSGSSHVVLDHETYILNLTQANIPGAIPHWQLLYRARETYGLPNTLPTAWHNLVYRMRGDMQLFQTFWFLYHKGHPPSEPCGTPCRLATLCAQLSARADSPALCRHLMPDGSLPEAQSLWPRPLFC
tumor growth (KPC cells): delayed tumor growth | Surface expression of PD1 on CD3 lymphocytes, mean fluorescence of PD1 in the CD3-positive cell population (PD1 on CD3 lymphocytes): 138 a.u. and 129 a.u. and 125 a.u. and 118 a.u. and 131 a.u. and 115 a.u. and 141 a.u. | half-life time of acid sphingomyelinase [1]: 2 weeks | half-life time of acid sphingomyelinase ([2]; in mice): 2 h | half-life of recombinant ASM ([2]; stated in mouse study of Example 10): 2 h | Survival of individual subjects (KPC tumor cells): 48 days and 55 days and 57 days and 60 days and 62 days and 65 days and 70 days | Survival of individual subjects (KPC tumor cells; listed as Rec. ASM alone): 48 days and 55 days and 57 days and 60 days and 62 days and 65 days and 70 days | Avg. Survival (KPC tumor cells; anti-PD1 every 2nd day i.p. where combined): 59.6 days
